Assay results published in US20260055369A1, “METHOD FOR GENERATING CELLS OF THE T CELL LINEAGE WITH ENGINEERING BROADLY REACTIVE HUMAN NOTCH LIGAND” (H. Lee Moffitt Cancer Center and Research Institute, Inc., priority 2022, published 2026).

What was measured:
Notch3 = assay: Notch inhibition assay in co-culture format (U2OS Notch3 reporter with HEK293T expressing DLL4, DLL1, JAG1 or JAG2); format: cell-based, human; conditions: 3 μM soluble protein; signaling by DLL1, DLL4, JAG1 and JAG2 expressing HEK293T cells
Chain of Notch3 (Q9UM47 197-505 limits assumed): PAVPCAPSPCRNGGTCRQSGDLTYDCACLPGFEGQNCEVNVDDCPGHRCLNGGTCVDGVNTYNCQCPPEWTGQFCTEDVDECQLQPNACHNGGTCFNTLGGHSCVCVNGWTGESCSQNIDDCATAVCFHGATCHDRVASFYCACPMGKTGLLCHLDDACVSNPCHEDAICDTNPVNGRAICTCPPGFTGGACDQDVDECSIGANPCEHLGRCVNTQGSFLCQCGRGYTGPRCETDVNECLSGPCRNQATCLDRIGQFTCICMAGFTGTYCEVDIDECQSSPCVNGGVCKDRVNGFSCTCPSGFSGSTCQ
Experimental: For inhibition of Notch ligand-expressing cell lines, on day one, U2OS Notch3 reporter cells (signal receivers) were detached with trypsin-EDTA, washed with DPBS, and added to 6-well plates. On day two, U2OS cells were transfected as described above. On day three, signal receiver cells were detached with trypsin-EDTA, and dilutions of 400,000 cells/mL were prepared in DMEM. On the one hand, soluble DLL4 variants were prepared at 6,000 nM in DPBS, combined in 1:1 dilution with signal receiver cells, and incubated for 15 min at RT. On the other hand, HEK293T-expressing WT DLL4, DLL1, JAG1, JAG2 were detached with trypsin-EDTA, washed with DPBS and 200,000 cells/mL stocks prepared in DMEM. One hundred microliters of both signal senders and pre-blocked signal receivers were combined in cell ratio 1:1 and incubated for 24 hours at 37° C., and 5% CO2. On day four, luciferase firefly and Renilla signals were determined with Dual-Glo luciferase assay system (Promega) using a GloMax luminometer (Promega). Doxycycline at 2 μg/mL was kept for all the conditions. A luminescence ratio firefly:Renilla was determined for every well. Notch activation of each Notch3:ligand pair was normalized to the signal of Notch3 reporters in the presence of HEK293T lacking ligands. Each Notch signaling pair was set at 100% activation and soluble DLL4 treatments were relative to its corresponding pair. […]

[1] = Thermal denaturation by differential scanning fluorimetry (DSF); format: physicochemical; conditions: for melting temperature (Tm): N-EGF5, 5 μM in HBS
Experimental: WT DLL4 and Delta^MAX (N-EGF5) were diluted at 5 μM in 20 μL of HBS buffer, and then combined with 10 μM (5×) SYPRO Orange (ThermoFisher Scientific) prepared in 100% DMSO (final DMSO concentration was 0.1%). This mix was equilibrated at room temperature for 30 min. Proteins were analyzed in a 96-well microtiter plate using a StepOnePlus RT-PCR system (Applied Biosystems) applying a continuous heating gradient from 25 to 99° C. with a step of 1% of temperature/min. Data was normalized and represented as the mean of three independent technical replicates. Similar Tm values were obtained for the replica measurements.

Notch1 [2] = assay: Notch activation assay with ligands non-specifically adsorbed to plates (CHO-K1 N1-Gal4 fluorescent reporter); format: cell-based; conditions: for EC50 for Notch1 activation: non-specifically adsorbed to tissue culture plates, 24 hours
Chain of Notch1 (P46531 19-1664 limits assumed): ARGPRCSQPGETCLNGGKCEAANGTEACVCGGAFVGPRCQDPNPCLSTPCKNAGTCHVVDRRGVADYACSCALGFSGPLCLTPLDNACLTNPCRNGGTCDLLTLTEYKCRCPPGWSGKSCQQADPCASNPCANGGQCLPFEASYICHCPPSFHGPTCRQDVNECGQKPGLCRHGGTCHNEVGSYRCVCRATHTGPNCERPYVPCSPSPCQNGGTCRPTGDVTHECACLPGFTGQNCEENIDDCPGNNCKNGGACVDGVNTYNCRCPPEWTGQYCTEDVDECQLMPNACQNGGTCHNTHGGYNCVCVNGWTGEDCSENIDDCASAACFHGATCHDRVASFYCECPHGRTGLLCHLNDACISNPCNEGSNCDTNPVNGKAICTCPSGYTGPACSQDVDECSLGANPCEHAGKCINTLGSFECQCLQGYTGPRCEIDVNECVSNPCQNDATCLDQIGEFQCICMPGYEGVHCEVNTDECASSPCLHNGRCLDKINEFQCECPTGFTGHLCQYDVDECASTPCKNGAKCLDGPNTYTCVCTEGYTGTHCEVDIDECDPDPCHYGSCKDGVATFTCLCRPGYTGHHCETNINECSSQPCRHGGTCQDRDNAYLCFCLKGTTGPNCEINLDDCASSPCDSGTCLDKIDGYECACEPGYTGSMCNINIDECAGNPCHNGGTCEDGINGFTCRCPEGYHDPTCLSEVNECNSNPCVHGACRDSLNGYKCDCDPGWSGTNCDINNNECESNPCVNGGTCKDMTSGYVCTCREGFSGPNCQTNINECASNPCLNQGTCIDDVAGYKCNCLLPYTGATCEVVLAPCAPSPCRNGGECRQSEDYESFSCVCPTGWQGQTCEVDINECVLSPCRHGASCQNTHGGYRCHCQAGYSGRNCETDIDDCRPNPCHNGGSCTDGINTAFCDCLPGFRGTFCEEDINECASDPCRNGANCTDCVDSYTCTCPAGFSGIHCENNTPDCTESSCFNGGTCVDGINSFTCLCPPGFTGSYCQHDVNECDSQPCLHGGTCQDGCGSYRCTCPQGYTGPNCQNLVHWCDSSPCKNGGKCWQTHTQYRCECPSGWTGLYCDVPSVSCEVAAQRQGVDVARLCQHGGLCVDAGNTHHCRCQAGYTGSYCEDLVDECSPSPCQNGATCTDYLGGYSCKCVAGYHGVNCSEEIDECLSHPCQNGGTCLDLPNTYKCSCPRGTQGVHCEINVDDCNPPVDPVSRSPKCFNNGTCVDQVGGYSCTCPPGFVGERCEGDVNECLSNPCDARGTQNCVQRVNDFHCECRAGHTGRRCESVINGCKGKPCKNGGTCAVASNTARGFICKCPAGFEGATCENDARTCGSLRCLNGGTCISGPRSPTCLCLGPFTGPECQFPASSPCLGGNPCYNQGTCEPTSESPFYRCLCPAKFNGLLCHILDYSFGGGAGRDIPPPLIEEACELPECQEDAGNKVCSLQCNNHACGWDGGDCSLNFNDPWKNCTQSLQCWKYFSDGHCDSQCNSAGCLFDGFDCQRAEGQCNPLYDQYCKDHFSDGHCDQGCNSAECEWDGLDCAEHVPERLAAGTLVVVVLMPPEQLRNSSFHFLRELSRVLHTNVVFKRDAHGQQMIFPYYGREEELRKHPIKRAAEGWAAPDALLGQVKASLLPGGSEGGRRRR
Chain of Notch1 (P46531 1665-1756 limits assumed): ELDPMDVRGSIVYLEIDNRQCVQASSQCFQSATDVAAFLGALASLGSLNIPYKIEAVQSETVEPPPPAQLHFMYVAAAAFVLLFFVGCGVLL
Experimental: On day one, 2-fold serial dilutions of non-biotinylated DLL4 recombinant proteins (N-EGF5) were prepared in 100 μL of DPBS and used to coat 96-well plates (Coastar) for 1 hour at 37° C. WT DLL4 started at 66.56 ng/mm^2 and Delta^MAX at 0.33 ng/mm^2. Then, the wells were washed three times with 200 μL of DPBS to remove unbound proteins. Next, CHO-K1 N1-Gal4 cells in culture were detached with trypsin-EDTA 0.25% (Gibco) and manually counted. Appropriate dilutions were prepared in α-MEM media to ensure 30,000 CHO-K1 N1-Gal4 cells per well in 200 μL. Ligand-coated plates and reporter cell lines were incubated for 24 hours at 37° C. and 5% CO2. On day two, CHO-K1 N1-Gal4 cells were washed with 200 μL DPBS, detached with 30 μL of trypsin-EDTA 0.25%, and quenched with 200 μL of α-MEM media. Finally, cells were resuspended and H2B-mCitrine signal was measured by flow cytometry (BD Accuri C6 plus). CHO-K1 N1-Gal4 and ligand-lacking wells were used as a negative control. The measurements represent the mean fluorescent intensity as percentage of Notch activation±s.d. of three biological replicates. Notch activation was reference-subtracted from a well coated with 0.5% BSA containing CHO-K1 N1-Gal4 cells. Gating strategies for this experiment are detailed in FIG. 13A.

Notch1 [3] = assay: Notch activation with ligand-oriented coupling on streptavidin plates (CHO-K1 N1-Gal4 reporter); format: cell-based; conditions: for EC50: C-terminally biotinylated, streptavidin-coated plates (oriented coupling), 24 hours; for maximum level of Notch1 activation, oriented coupling versus non-specific adsorption: FIG. 3B
Experimental: For CHO-K1 N1-Gal4 reporters, on day one, tissue culture 96-well plates (Coastar) were pre-treated with 100 μL of streptavidin at 10 μg/mL (VWR) for 1 hour at 37° C., washed three times with 200 μL DPBS (Corning), and blocked with 100 μL BSA 2% (VWR) for 1 hour at 37° C. Excess BSA was removed by washing three times with 200 μL DPBS (Corning), and 100 μL of DPBS containing biotinylated DLL4 proteins were coupled to streptavidin for 1 hour at 37° C. (2-fold serial dilutions starting at 50 nM). Non-coupled DLL4 proteins were removed by washing three times with 200 μL DPBS. Next, Notch reporter cells in culture were detached with trypsin-EDTA 0.25% (Gibco), and 30,000 cells in α-MEM media (200 μL) were added into individual wells. Assay plates were incubated for 24 hours at 37° C., and 5% CO2. On day two, CHO-K1 N1-Gal4 cells were washed with 200 μL DPBS, detached with 30 μL of trypsin-EDTA 0.25%, and 200 μL of α-MEM media added. Cells were resuspended and Notch activation was measured as a function of fluorescence by flow cytometry (BD Accuri C6 plus). CHO-K1 N1-Gal4 cells and lacking-ligand wells were used as a negative control. The measurements represent the mean fluorescent intensity as percentage of Notch activation±s.d. of three biological replicates. Notch activation was reference-subtracted from a well coated with a non-related control protein (PA domain of RNF128).

| Molecule | reduction in reporter signal (Notch3) | increase in Tm relative to WT DLL4 (ΔTm) [1] | melting temperature (Tm) [1] | Emax greater than that induced by WT DLL4 (Notch1 [2]; non-specific adsorption) | EC50 for Notch1 activation (Notch1 [2]) | improvement in Notch activation efficiency vs WT DLL4 (Notch1 [2]; ratio of EC50, non-specific adsorption) | EC50 (Notch1 [3]) | maximum level of Notch1 activation, oriented coupling versus non-specific adsorption (Notch1 [3]) |
| --- | --- | --- | --- | --- | --- | --- | --- | --- |
| Delta^MAX: engineered human DLL4 consensus variant with 10 mutations combining DLL4.v1 and DLL4.v2 mutations; sequence matches SEQ ID NO: 4/10 (protein) SSVFQLQLQEFINERGVLASGRPCEPGCRTFFRVCLKHFQAVVSPGPCTFGTVSTPVLGTNSFAVRDDSSGGGRNPLQLPLNFTWPGTFSLIIEAWHAPGDDLRPEALPPDALISKFAIQGSLAVGQNWLLDEQTSTLTRLRYSYRVICSDNYYGDNCSRLCKKRNDYFGHYVCQPDGNPSCLPGWTGEYCQQPICLSGCHEQNGYCSKPAECLCRPGWQGRLCNECIPHPGCRHGTCSTPWQCLCDEGWGGLYCDQDLNYCTHHSPCKNGATCRNSGPRSYTCTCRPGYTGVDCELELSECDSNPCRNGGSCKDQEDGYHCLCPPGYYGLHCEHSTLSCADSPCFNGGSCRERNQGANYACECPPNFTGSNCE | 70-85% | 11 °C | 58 °C | 20% | 0.009 ng/mm^2 | 250 fold | 1.7 nM | higher maximum level |
| WT DLL4: human wild-type Delta-like 4 (N-EGF5, residues 27-400), SEQ ID NO: 1 (protein) SGVFQLQLQEFINERGVLASGRPCEPGCRTFFRVCLKHFQAVVSPGPCTFGTVSTPVLGTNSFAVRDDSSGGGRNPLQLPFNFTWPGTFSLIIEAWHAPGDDLRPEALPPDALISKIAIQGSLAVGQNWLLDEQTSTLTRLRYSYRVICSDNYYGDNCSRLCKKRNDHFGHYVCQPDGNLSCLPGWTGEYCQQPICLSGCHEQNGYCSKPAECLCRPGWQGRLCNECIPHNGCRHGTCSTPWQCTCDEGWGGLFCDQDLNYCTHHSPCKNGATCSNSGQRSYTCTCRPGYTGVDCELELSECDSNPCRNGGSCKDQEDGYHCLCPPGYYGLHCEHSTLSCADSPCFNGGSCRERNQGANYACECPPNFTGSNCE | 10-40% | – | 47 °C | – | 2.3 ng/mm^2 | – | 16 nM | higher maximum level |
